We go through 1 molecule from paper PMC8857057.

The target in the data set is Pab1 monomer (Saccharomyces cerevisiae, UniProt P04147 1-577). Kind of data set: fluorescence anisotropy.
Chain of Pab1 monomer (P04147 whole entry): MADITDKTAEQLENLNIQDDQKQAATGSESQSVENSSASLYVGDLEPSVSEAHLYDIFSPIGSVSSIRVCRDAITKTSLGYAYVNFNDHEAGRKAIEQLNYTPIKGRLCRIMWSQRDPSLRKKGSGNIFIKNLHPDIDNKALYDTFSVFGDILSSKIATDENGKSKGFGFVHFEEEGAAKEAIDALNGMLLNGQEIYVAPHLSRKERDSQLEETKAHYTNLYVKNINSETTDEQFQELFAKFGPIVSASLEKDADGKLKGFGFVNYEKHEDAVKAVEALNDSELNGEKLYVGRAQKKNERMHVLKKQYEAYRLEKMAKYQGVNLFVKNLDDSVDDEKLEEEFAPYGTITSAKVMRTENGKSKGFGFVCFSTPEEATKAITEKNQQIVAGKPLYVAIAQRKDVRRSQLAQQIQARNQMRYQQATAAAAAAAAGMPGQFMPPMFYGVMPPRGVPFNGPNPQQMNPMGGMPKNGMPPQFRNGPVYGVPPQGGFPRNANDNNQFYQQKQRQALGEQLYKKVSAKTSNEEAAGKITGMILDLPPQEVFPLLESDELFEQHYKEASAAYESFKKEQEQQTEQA

Take AAAAAAAAAAAAAAAAAAA (ssRNA) [A19 RNA]: the binding result is given as “binds”.
